Laboratory results published in patent US20110263454A1, “Methods of Identifying Functional Characteristics of Promoters, Transcription Modifying Proteins and Transcription Modulating Agents” (Salk Institute for Biological Studies, priority 2008, published 2011).

B1: PR: Progesterone Receptor (NR3C3), cDNA driver (protein, UniProt P06401 1-933, looked up)
Progesterone receptor: MTELKAKGPRAPHVAGGPPSPEVGSPLLCRPAAGPFPGSQTSDTLPEVSAIPISLDGLLFPRPCQGQDPSDEKTQDQQSLSDVEGAYSRAEATRGAGGSSSSPPEKDSGLLDSVLDTLLAPSGPGQSQPSPPACEVTSSWCLFGPELPEDPPAAPATQRVLSPLMSRSGCKVGDSSGTAAAHKVLPRGLSPARQLLLPASESPHWSGAPVKPSPQAAAVEVEEEDGSESEESAGPLLKGKPRALGGAAAGGGAAAVPPGAAAGGVALVPKEDSRFSAPRVALVEQDAPMAPGRSPLATTVMDFIHVPILPLNHALLAARTRQLLEDESYDGGAGAASAFAPPRSSPCASSTPVAVGDFPDCAYPPDAEPKDDAYPLYSDFQPPALKIKEEEEGAEASARSPRSYLVAGANPAAFPDFPLGPPPPLPPRATPSRPGEAAVTAAPASASVSSASSSGSTLECILYKAEGAPPQQGPFAPPPCKAPGASGCLLPRDGLPSTSASAAAAGAAPALYPALGLNGLPQLGYQAAVLKEGLPQVYPPYLNYLRPDSEASQSPQYSFESLPQKICLICGDEASGCHYGVLTCGSCKVFFKRAMEGQHNYLCAGRNDCIVDKIRRKNCPACRLRKCCQAGMVLGGRKFKKFNKVRVVRALDAVALPQPVGVPNESQALSQRFTFSPGQDIQLIPPLINLLMSIEPDVIYAGHDNTKPDTSSSLLTSLNQLGERQLLSVVKWSKSLPGFRNLHIDDQITLIQYSWMSLMVFGLGWRSYKHVSGQMLYFAPDLILNEQRMKESSFYSLCLTMWQIPQEFVKLQVSQEEFLCMKVLLLLNTIPLEGLRSQTQFEEMRSSYIRELIKAIGLRQKGVVSSSQRFYQLTKLLDNLHDLVKQLHLYCLNTFIQSRALSVEFPEMMSEVIAAQLPKILAGMVKPLLFHKK
B2: GCNF: Germ Cell Nuclear Factor (NR6A1, GCNF1), cDNA driver (protein, UniProt Q15406 1-480, looked up)
Nuclear receptor subfamily 6 …: MERDEPPPSGGGGGGGSAGFLEPPAALPPPPRNGFCQDELAELDPGTISVSDDRAEQRTCLICGDRATGLHYGIISCEGCKGFFKRSICNKRVYRCSRDKNCVMSRKQRNRCQYCRLLKCLQMGMNRKAIREDGMPGGRNKSIGPVQISEEEIERIMSGQEFEEEANHWSNHGDSDHSSPGNRASESNQPSPGSTLSSSRSVELNGFMAFREQYMGMSVPPHYQYIPHLFSYSGHSPLLPQQARSLDPQSYSLIHQLLSAEDLEPLGTPMLIEDGYAVTQAELFALLCRLADELLFRQIAWIKKLPFFCELSIKDYTCLLSSTWQELILLSSLTVYSKQIFGELADVTAKYSPSDEELHRFSDEGMEVIERLIYLYHKFHQLKVSNEEYACMKAINFLNQDIRGLTSASQLEQLNKRYWYICQDFTEYKYTHQPNRFPDLMMCLPEIRYIAGKMVNVPLEQLPLLFKVVLHSCKTSVGKE
B3: NR4a3: NR4a3 (NR4A3; NOR1), nuclear hormone receptor cDNA driver (protein, UniProt Q92570 1-626, looked up)
Nuclear receptor subfamily 4 …: MPCVQAQYSPSPPGSSYAAQTYSSEYTTEIMNPDYTKLTMDLGSTEITATATTSLPSISTFVEGYSSNYELKPSCVYQMQRPLIKVEEGRAPSYHHHHHHHHHHHHHHQQQHQQPSIPPASSPEDEVLPSTSMYFKQSPPSTPTTPAFPPQAGALWDEALPSAPGCIAPGPLLDPPMKAVPTVAGARFPLFHFKPSPPHPPAPSPAGGHHLGYDPTAAAALSLPLGAAAAAGSQAAALESHPYGLPLAKRAAPLAFPPLGLTPSPTASSLLGESPSLPSPPSRSSSSGEGTCAVCGDNAACQHYGVRTCEGCKGFFKRTVQKNAKYVCLANKNCPVDKRRRNRCQYCRFQKCLSVGMVKEVVRTDSLKGRRGRLPSKPKSPLQQEPSQPSPPSPPICMMNALVRALTDSTPRDLDYSRYCPTDQAAAGTDAEHVQQFYNLLTASIDVSRSWAEKIPGFTDLPKEDQTLLIESAFLELFVLRLSIRSNTAEDKFVFCNGLVLHRLQCLRGFGEWLDSIKDFSLNLQSLNLDIQALACLSALSMITERHGLKEPKRVEELCNKITSSLKDHQSKGQALEPTESKVLGALVELRKICTLGLQRIFYLKLEDLVSPPSIIDKLFLDTLPF
B4: NR4a2: NR4a2 (NR4A2; NURR1), nuclear hormone receptor cDNA driver (protein, UniProt P43354 1-598, looked up)
Nuclear receptor subfamily 4 …: MPCVQAQYGSSPQGASPASQSYSYHSSGEYSSDFLTPEFVKFSMDLTNTEITATTSLPSFSTFMDNYSTGYDVKPPCLYQMPLSGQQSSIKVEDIQMHNYQQHSHLPPQSEEMMPHSGSVYYKPSSPPTPTTPGFQVQHSPMWDDPGSLHNFHQNYVATTHMIEQRKTPVSRLSLFSFKQSPPGTPVSSCQMRFDGPLHVPMNPEPAGSHHVVDGQTFAVPNPIRKPASMGFPGLQIGHASQLLDTQVPSPPSRGSPSNEGLCAVCGDNAACQHYGVRTCEGCKGFFKRTVQKNAKYVCLANKNCPVDKRRRNRCQYCRFQKCLAVGMVKEVVRTDSLKGRRGRLPSKPKSPQEPSPPSPPVSLISALVRAHVDSNPAMTSLDYSRFQANPDYQMSGDDTQHIQQFYDLLTGSMEIIRGWAEKIPGFADLPKADQDLLFESAFLELFVLRLAYRSNPVEGKLIFCNGVVLHRLQCVRGFGEWIDSIVEFSSNLQNMNIDISAFSCIAALAMVTERHGLKEPKRVEELQNKIVNCLKDHVTFNNGGLNRPNYLSKLLGKLPELRTLCTQGLQRIFYLKLEDLVPPPAIIDKLFLDTLPF
B5: DAX-1: DAX1 (NR0B1), cDNA driver (protein, UniProt P51843 1-470, looked up)
Nuclear receptor subfamily 0 …: MAGENHQWQGSILYNMLMSAKQTRAAPEAPETRLVDQCWGCSCGDEPGVGREGLLGGRNVALLYRCCFCGKDHPRQGSILYSMLTSAKQTYAAPKAPEATLGPCWGCSCGSDPGVGRAGLPGGRPVALLYRCCFCGEDHPRQGSILYSLLTSSKQTHVAPAAPEARPGGAWWDRSYFAQRPGGKEALPGGRATALLYRCCFCGEDHPQQGSTLYCVPTSTNQAQAAPEERPRAPWWDTSSGALRPVALKSPQVVCEAASAGLLKTLRFVKYLPCFQVLPLDQQLVLVRNCWASLLMLELAQDRLQFETVEVSEPSMLQKILTTRRRETGGNEPLPVPTLQHHLAPPAEARKVPSASQVQAIKCFLSKCWSLNISTKEYAYLKGTVLFNPDVPGLQCVKYIQGLQWGTQQILSEHTRMTHQGPHDRFIELNSTLFLLRFINANVIAELFFRPIIGTVSMDDMMLEMLCTKI
B6: SHP: Small Heterodimer Partner (NR0B2), cDNA driver (protein, UniProt Q15466 1-257, looked up)
Nuclear receptor subfamily 0 …: MSTSQPGACPCQGAASRPAILYALLSSSLKAVPRPRSRCLCRQHRPVQLCAPHRTCREALDVLAKTVAFLRNLPSFWQLPPQDQRRLLQGCWGPLFLLGLAQDAVTFEVAEAPVPSILKKILLEEPSSSGGSGQLPDRPQPSLAAVQWLQCCLESFWSLELSPKEYACLKGTILFNPDVPGLQAASHIGHLQQEAHWVLCEVLEPWCPAAQGRLTRVLLTASTLKSIPTSLLGDLFFRPIIGDVDIAGLLGDMLLLR

test system: hMyoD promoter; assay: NHR-promoter luciferase screen, hMyoD promoter; assay type: cell-based, human; conditions: MyoD promoter reporter; co-transfected HR, without or with its ligand
Procedure, shortened: (§1)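 CV-1 cells were co-transfected with 50 ng NHR (homodimer or NHR/RXR heterodimer), 100 ng promoter-luciferase construct and 50 ng LacZ. Luciferase was normalized to LacZ and to a no-NHR/no-ligand control.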

Molecule | Luc. act., normalized to lacZ
B1 | 70.4
B2 | 50.5
B3 | 56.1
B4 | 51.9
B5 | 61.3
B6 | 54.0

same assay, conditions: MyoD promoter reporter; co-transfected HR, without or with its ligand; relative to control

Molecule | Normalized Luc. act., normalized to control
B1 | 1.1
B2 | 0.8
B3 | 0.9
B4 | 0.8
B5 | 1.0
B6 | 0.9

same assay, conditions: hMyoD promoter-luciferase, CV-1 cells, NHR +/- ligand, control = 1.00

Molecule | luciferase activity normalized to lacZ activity and to a control, hMyoD
B1 | 1.11
B2 | 0.80
B3 | 0.89
B4 | 0.82
B5 | 0.97
B6 | 0.85

test system: hMDR1 promoter; assay: NHR-promoter luciferase screen, hMDR1 promoter; assay type: cell-based, human; conditions: MDR1 promoter; HR/ligand component
Procedure, shortened: as §1

Molecule | Luc. act., normalized to lacZ | Normalized Luc. act., normalized to control
B1 | 0.4 | 1.3
B2 | 0.3 | 0.8
B3 | 0.2 | 0.7
B4 | 0.2 | 0.7
B5 | 0.3 | 0.9
B6 | 0.3 | 0.8

same assay, conditions: transcription factor +/- ligand; control = 1.00

Molecule | hMDR1 promoter reporter activity
B1 | 1.35
B2 | 0.83
B3 | 0.65
B4 | 0.74
B5 | 0.89
B6 | 0.84

test system: SREBP1c promoter; assay: NHR-promoter luciferase screen, SREBP1c promoter; assay type: cell-based, mouse; conditions: SREBP1c promoter; HR component without or with ligand
Procedure, shortened: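 CV-1 cells co-transfected with 50 ng NHR (homodimer or NHR/RXR heterodimer), 100 ng promoter-luciferase and 50 ng LacZ. Luciferase read at 48 h, normalised to LacZ and to a no-NHR/no-ligand control.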

Molecule | Luc. act., normalized to lacZ | Normalized Luc. act., normalized to control
B1 | 466.4 | 1.4
B2 | 368.2 | 1.1
B3 | 358.6 | 1.1
B4 | 456.2 | 1.4
B5 | 497.8 | 1.5
B6 | 350.6 | 1.1

same assay, conditions: transcription factor +/- ligand; control = 1.00

Molecule | mSREBP1-c promoter reporter activity
B1 | 1.45
B2 | 1.14
B3 | 1.11
B4 | 1.42
B5 | 1.55
B6 | 1.09
